Measurements: US7166733B2, “O,O'-Amidomalonate and N,O-Amidomalonate platinum complexes” (priority 2000, dated 2007)

Key:
[1] = Maximum tolerated dose on a qd×5 schedule in the B16 melanoma model; format: in vivo; conditions: IP, C57BL/6 mice
Experimental: (§1) A study was conducted to compare the antitumor activity of poly(HPMA)-GFLG-Ama=Pt=DACH with that of carboplatin in the B16 melanoma model when each agent was administered as an IP injection daily for 5 days (qd×5). The poly(HPMA)-GFLG-Ama=Pt=DACH material was also given at days 15, 16, and 17. Both compounds were given at their respective maximum tolerated (equitoxic) doses on this regimen.
(§2) Female C57BL/6 mice weighing 18–20 g were implanted s.c. with 10^6 B16F10 tumor cells harvested from tissue culture. The size of the resulting tumor was followed individually throughout the study. Tumor mass (in mg) was calculated as (W^2×L)/2, where W is the shorter tumor dimension and L is the longer tumor dimension. Individual treatments were administered when the tumor was 75–100 mg in size. The injection volume was 0.04 mL per gram of body weight, and the drug was administered intraperitoneally. Tumor mass and body weight were measured daily. Data are expressed as the mean±SEM of the tumor mass and are plotted until 50% of the animals in each treatment group have died or been sacrificed due to excessive tumor mass, tumor ulceration, or morbidity. For comparison of the activity of different agents, each administered at its respective maximum tolerated doses (MTD), the MTD is defined as that dose which reproducibly induces no more than 10% (1 out of each 10 animals per group) early toxic deaths not attributable to tumor burden, and which results in a mean maximum body weight loss (i.e., the group mean of the nadir in each individual mouse weight, regardless of the day on which it occurred) of 10–15%, followed by recovery in lost weight.
(§3) A study was conducted to compare the antitumor activity of p(HPMA)-GFLG-C3-Sulf-Ama=Pt=DACH with that of carboplatin in the B16 melanoma model when each agent was administered as an IP injection daily for 5 days (qd×5). Both compounds were given at their respective maximum tolerated (equitoxic) doses on this regimen.
(§4) The methods utilized in this study were identical to those utilized for the p(HPMA)-GFLG-C3-Sulf-Ama=Pt=DACH study of Example 38.

B16 melanoma = assay: Antitumor activity in the B16 melanoma model, multi-dose protocol; format: in vivo; conditions: s.c. B16F10 in C57BL/6 mice
Experimental: as §1, §2, §3, §4

Bl6FI0 melanoma cells = assay: Clonogenic (colony-formation) assay; format: cell-based, murine; conditions: 7 days incubation
Experimental: The relative cytotoxic activity of various O,O′—Pt chelate analogs were evaluated in vitro by means of a clonogenic (colony-formation) assay employing a tissue culture of Bl6FI0 melanoma cells. In this way, the activity of the analogs was compared to that of cisplatin and carboplatin. The effect of conversion to an N,O—Pt chelate was also evaluated. Briefly, cells were seeded into culture dishes and allowed to attach. The cultures were incubated for 7 days in medium containing the desired concentration of the test agent. After fixation, the number of cell clusters containing >50 cells was scored as a colony. Each concentration of test agent was assayed in triplicate. The mean number of colonies in each of the triplicate dishes was divided by the mean number of colonies in the control (no test agent) dishes to obtain a percent survival value for each concentration of test agent. The IC50 (concentration resulting in 50% inhibition of growth) of each of the agents was determined by linear regression analysis using the data values directly above and below the 50% survival point.

[2] = Platinum release from PBS; format: physicochemical; conditions: 37° C.
Experimental: The percent of small platinum species released over time was measured by dissolving about 30 mg of the polymer-platinum conjugate in 15 mL of phosphate buffered saline (10 mM phosphate, 123 mM Cl^−) and incubating the solution at 37° C. in a water bath. At indicated times, 2.0 mL aliquots were transferred to a centrifugal filter with a 3 kDa nominal molecular weight cutoff (Centricon YM-3 from Millipore) and spun until >1.5 mL of filtrate had accumulated. The timed filtrates and the original solution were analyzed for platinum by ICP-OES. The percent of small Pt species released was determined using the formula: ((ppm Pt in filtrate)/(ppm Pt in stock solution))×100.

[3] = Dependence on pH of the isomer ratio of O,O′—Pt to N,O—Pt chelate (195Pt NMR of timed aliquots); format: physicochemical
Experimental: The percent of O,O′- and N,O-chelate in timed aliquots of reactions mixtures were determined by removing enough of the reaction mixture (4–15 mL depending on concentration) to give greater than 100 mg of Pt-chelate if only ^195Pt NMR spectroscopy was to be done or about 200 mg if % Pt, and % H2O were also to be determined. The aliquots were purified by ultrafiltration using a Centricon Plus-20 centrifugal filter with a 5 kDa Biomax membrane from Millipore. The charged device was spun at the recommended RCF until less than 1 mL remained. The filtrate was discarded, the retentate was diluted with 15–18 mL water and the sample was centrifuged. This was repeated once more, and the retentate was lyophilized to give the sample for analysis.
^195Pt NMR spectra were obtained from a filtered 0.70 mL solution in 93/7 H2O/D2O in a 5 mm tube. Enough sample (80–120 mg) was used to give a solution that was >50 mM in platinum. The probe was tuned for each sample. A pulse width of 90 degrees, an acquisition time of 10 msec, a spectral window of 100 kHz and no delay was used. The transmitter was tuned to approximately midway between the O,O′—Pt and N,O—Pt chelates shifts (−1896 ppm for cis-diammine Pt and at −2450 for DACH—Pt). Between 50,000 and 1 million transients were typically required to obtain a sufficient (>35:1) s/n ratio for the cis-diammine-Pt and DACH=Pt species, respectively. The resulting FID was increasingly left-shifted until a flat baseline was obtained, a 100 Hz line broadening was applied, and a Fourier fill of 2048 was applied before processing. Integral regions were set and the spectrum's baseline was subjected to a spline fit using VNMR software v6.1. The sample was referenced externally to a 100 mM sample of K2PtCl4 in 95/5H2O/D2O and 100 mM HCl at −1624 ppm. This was also used to determine the 90 degree pulse width and T1.
Four 50 mL Centrifuge tubes were each charged with 1.00 g of p(HPMA)-GFLG-Ama=Pt(NH3)2 (either 100% N,O-chelate) or a 92% O,O-chelate, 8% N,O-chelate mixture. These materials were dissolved in 27 mL Milli-Q water (approx a 4 wt % solution) and adjusted to the pH ranges desired using 1 M NaOH or 5% HClO4 as appropriate. The samples were then heated, with stirring, in a 38° C. water bath and maintained within their specified pH ranges. Timed aliquots were taken and frozen until a suitable time at which point the solutions were concentrated by centrifugal ultrafiltration (one spin down at 4800 rpm, 30° C.) and then transferred to an NMR tube. A small amount of D2O was added to each tube and the ^195Pt NMR spectra were recorded.

[4] = Single-dose IV maximum tolerated dose study; format: in vivo; conditions: mice, highest dose with no drug-induced deaths
Source text: For these studies, the MTD was defined as the highest dose evaluated in which no mouse deaths resulted from drug-induced toxicity.

[5] = Example 38 study, IP qd×5 at MTD (polymer also days 15, 16, 17)
[6] = Example 39 study, IP qd×5 at MTD
[7] = pH 5.0–5.5, 38° C., 100 mM ClO4^−, 1 h
[8] = pH 5.0–5.5, 38° C., 100 mM ClO4^−, 5 h
[9] = pH 5.0–5.5, 38° C., 100 mM ClO4^−, 8 h
[10] = pH 5.0–5.5, 38° C., 100 mM ClO4^−, 22 h
[11] = pH 5.0–5.5, 38° C., 100 mM Cl^−, 1 h
[12] = pH 5.0–5.5, 38° C., 100 mM Cl^−, 5 h
[13] = pH 5.0–5.5, 38° C., 100 mM Cl^−, 8 h
[14] = pH 5.0–5.5, 38° C., 100 mM Cl^−, 22 h

For `N.N.O=C([O-])C1(C(=O)[O-])CCC1.[Pt+2]` [Carboplatin, reference compound], the maximum tolerated dose [1] was 60 mg/kg, the “maximum tolerated dose, equivalent in Pt” value [1] was 32 mg Pt/kg and the “inhibition of tumor growth” value (B16 melanoma; [5]) was “modest inhibition of tumor growth”. For the same compound, the “inhibition of tumor growth” value (B16 melanoma; [6]) was “very little inhibition of tumor growth” and the IC50 (Bl6FI0 melanoma cells) was 2400 nM.
Compound `N.N.[Cl][Pt][Cl]` [Cisplatin, cis-diamminedichloroplatinum(II), reference compound] has an IC50 (Bl6FI0 melanoma cells) of 500 nM.
In the case of p(HPMA)-GFLG-Ama=Pt=DACH, the maximum tolerated dose [1] is reported as 100 mg Pt/kg and the “inhibition of tumor growth” value (B16 melanoma; [5]) is reported as “tumor growth was substantially slowed and prolonged”.
For “p(HPMA)-GFLG-Ama═Pt═(NH3)2, 45 kDa, O,O′—Pt”, the IC50 (Bl6FI0 melanoma cells) was 1000 nM.
In the case of “p(HPMA)-GFLG-Ama═Pt═(NH3)2, 90 kDa, O,O′—Pt”, the IC50 (Bl6FI0 melanoma cells) is reported as 900 nM.
With “poly(HPMA)-GFLG-Ama=Pt(NH3)2, N,O—Pt chelate, >351 kDa [Example 14]” the “Pt release in PBS” value ([2]; 3 hours) was 0.68% and the “Pt release in PBS” value ([2]; 24 hours) was 2.28%.
With “poly(HPMA)-GFLG-Ama=Pt(NH3)2O,O′—Pt chelate [Example 3]” the “N,O— chelate” value ([3]; pH 3.0–3.5, 38° C., 1 h) was 0%, the “O,O— chelate” value ([3]; pH 3.0–3.5, 38° C., 1 h) was 100% and the “N,O— chelate” value ([3]; pH 3.0–3.5, 38° C., 5 h) was 3%. The “O,O— chelate” value ([3]; pH 3.0–3.5, 38° C., 5 h) was 97%, the “N,O— chelate” value ([3]; pH 3.0–3.5, 38° C., 20 h) was 2% and the “O,O— chelate” value ([3]; pH 3.0–3.5, 38° C., 20 h) was 98%. For the same compound, the “N,O— chelate” value ([3]; pH 4.0–4.5, 38° C., 1 h) was 25%, the “O,O— chelate” value ([3]; pH 4.0–4.5, 38° C., 1 h) was 75% and the “N,O— chelate” value ([3]; pH 4.0–4.5, 38° C., 5 h) was 21%. For the same compound, the “O,O— chelate” value ([3]; pH 4.0–4.5, 38° C., 5 h) was 79%, the “N,O— chelate” value ([3]; pH 4.0–4.5, 38° C., 20 h) was 28% and the “O,O— chelate” value ([3]; pH 4.0–4.5, 38° C., 20 h) was 72%. For the same compound, the “N,O— chelate” value [3, 7] was 31%, the “O,O— chelate” value [3, 7] was 69% and the “N,O— chelate” value [3, 8] was 56%. For the same compound, the “O,O— chelate” value [3, 8] was 44%, the “N,O— chelate” value [3, 9] was 67% and the “O,O— chelate” value [3, 9] was 33%. For the same compound, the “N,O— chelate” value [3, 10] was 60%, the “O,O— chelate” value [3, 10] was 40% and the “N,O— chelate” value [3, 11] was 31%. For the same compound, the “O,O— chelate” value [3, 11] was 69%, the “N,O— chelate” value [3, 12] was 54% and the “O,O— chelate” value [3, 12] was 46%. The “N,O— chelate” value [3, 13] was 68%, the “O,O— chelate” value [3, 13] was 32% and the “N,O— chelate” value [3, 14] was 68%. For the same compound, the “O,O— chelate” value [3, 14] was 32%, the “N,O— chelate” value ([3]; pH 5.0–5.5, 38° C., 1 h) was 33% and the “O,O— chelate” value ([3]; pH 5.0–5.5, 38° C., 1 h) was 67%. The “N,O— chelate” value ([3]; pH 5.0–5.5, 38° C., 5 h) was 49%, the “O,O— chelate” value ([3]; pH 5.0–5.5, 38° C., 5 h) was 51% and the “N,O— chelate” value ([3]; pH 5.0–5.5, 38° C., 20 h) was 65%. The “O,O— chelate” value ([3]; pH 5.0–5.5, 38° C., 20 h) was 35%, the “N,O— chelate” value ([3]; pH 6.0–6.5, 38° C., 1 h) was 43% and the “O,O— chelate” value ([3]; pH 6.0–6.5, 38° C., 1 h) was 57%. The “N,O— chelate” value ([3]; pH 6.0–6.5, 38° C., 5 h) was 66%, the “O,O— chelate” value ([3]; pH 6.0–6.5, 38° C., 5 h) was 34% and the “N,O— chelate” value ([3]; pH 6.0–6.5, 38° C., 20 h) was 91%. For the same compound, the “O,O— chelate” value ([3]; pH 6.0–6.5, 38° C., 20 h) was 9%, the IC50 (Bl6FI0 melanoma cells) was 800 to 1100 nM and the “maximum tolerated dose (MTD)” value [4] was 80–100 mg PVkg.
With “poly(HPMA)-GFLG-Ama=Pt=DACH, N,O—Pt chelate [Example 6]” the IC50 (Bl6FI0 melanoma cells) was less than 4000 nM.
For “poly(HPMA)-GFLG-C3-Sulf-Ama=Pt(NH3)2 N,O-chelate [Example 28]”, the “Pt release in PBS” value ([2]; 3 hours) was 3.02% and the “Pt release in PBS” value ([2]; 24 hours) was 5.44%.
For “poly(HPMA)-GFLG-NH(CH2)3SO2-Ama=Pt=DACH N,O-chelate [Example 29]”, the “Pt release in PBS” value ([2]; 3 hours) was 2.12%, the “Pt release in PBS” value ([2]; 24 hours) was 4.54% and the maximum tolerated dose [1] was 75 mg Pt/kg. For the same compound, the “inhibition of tumor growth” value (B16 melanoma; [6]) was “more marked inhibition in tumor growth”.
For “poly(HPMA)-GG-Ama=Pt(NH3)2 N,O Chelate [Example 17]”, the “Pt release in PBS” value ([2]; 3 hours) was 1.4% and the “Pt release in PBS” value ([2]; 24 hours) was 4.6%.
In the case of “poly(HPMA)-GG-Ama=Pt=DACH N,O-Chelate [Example 18]”, the “Pt release in PBS” value ([2]; 3 hours) is reported as 1.3% and the “Pt release in PBS” value ([2]; 24 hours) is reported as 5.5%.
With “poly(HPMA)-GG-NH(CH2)3SO2Ama=Pt=DACH, Approx. 22 kDa [Example 25]” the “Pt release in PBS” value ([2]; 3 hours) was 1.0% and the “Pt release in PBS” value ([2]; 24 hours) was 1.93%.
With “poly(HPMA)-GGGG-Ama=Pt=1R,2R-DACH N,O-Chelate [Example 21]” the “Pt release in PBS” value ([2]; 3 hours) was 0.972% and the “Pt release in PBS” value ([2]; 24 hours) was 3.173%.
In the case of “poly(HPMA)=GFLG-Ama=Pt=DACH, O,O′—Pt chelate [Example 5]”, the “Pt release in PBS” value ([2]; 3 hours) is reported as 6.0%, the “Pt release in PBS” value ([2]; 24 hours) is reported as 10.9% and the IC50 (Bl6FI0 melanoma cells) is reported as 1000 nM.
